Assay results published in PMC9164050, “N-Terminus-Mediated Solution Structure of Dimerization Domain of PRC1” (Current Issues in Molecular Biology, 2022).

Target: the molecule itself
Experiment: cross-linking; PEG5 cross-linker (0.1 M-1 M), protein at 20 nM and 50 nM, 50 mM sodium phosphate, 150 mM NaCl, pH 7.4, 25 °C, 30 min, read by SDS-PAGE

B1: PRC1 dimerization domain (PRC1-DD; aa 1-65 of Protein Regulator of Cytokinesis 1) (domain or fragment, human, UniProt O43663-1 1-65, looked up)
chain: MRRSEVLAEESIVCLQKALNHLREIWELIGIPEDQRLQRTEVVKKHIKELLDMMIAEEESLKERL
notes: Protein Regulator of Cytokinesis 1 (PRC1), human, isoform 1 (NP_003972; full length 620 residues), residues 1-65 (dimerization domain); Cloned between Nde I and Xho I of pET-21a with a C-terminal His-tag; no removal of the tag is described; For NMR the protein was 15N- or 15N/13C-labelled; isotopic heterodimers were made by mixing unlabelled and labelled protein in 8 M urea; also called …
In the case of B1, the “stoichiometry N” value is reported as 2.
